Source: publication PMC10234869

B1: Frey regulator of sperm-oocyte fusion 1 with C-terminal 3xFLAG tag (Frey1-3xFLAG), wild type [murine] / Signal Peptide Peptidase-like 2c, C-terminally myc-tagged (SPPL2c-myc) [murine] (parent)
chain 1: MVLAMLGALYPRAGLSLFLFYLILAGALLRPQPQRSQQSVPEEFSAPLELLQPLSGLVDDYGLRPKHPRPGGPRPLLSQAQQRKRDGPNMADYYYDVNL
chain 2: EYGLVRVVSKNWSKDYCVLYSSDYVNLPRDLHHAPLLSLHDGTKTPWCPDEDSFHQAQDSSPRQRPLHQTTTMVTRGNCSFYAKGWLAQDQGAQGLLIVSRARNQQCSDTISKPQDPSKPWPALTIPVAVLRYTDMLDIVSHTYGDTDVRVAMFAPLEPVTDYNMAIIFILAVGTVAAGGYWAGLMEANKLQRRQAQRGGGLGGHNQQQTVAAERSQRAWEDDDFEDAPMDFTPAMTGAVVTMSCSIMILLYFFYDCFVYVMIGIFSLGASTGLYSCLAPILCHLPLWRYQWVLPGQRVSVTWPLLLLAGLCAMVTVLWVIHRNEDHWAWLLQDTLGVAYCLFVLRRVRLPTFKNCTLFLLALLAFDVFFVFITPLFTKTGESIMVEVASGPADSSSHERLPMVLKVPRLSFSALTLCNQPFSILGFGDIVVPGFLVAYCHRFDMQVQSRQVYYMACTVAYAVGLLVTFVAMILMQMGQPALLYLVSSTLLTSLAVATCRQEFTLFWTGQGRAKIPAEPVAQPCIASAVGSKMKLEDAKDSRTTNRFEQAVDGESGDLESSTGDDMAEMVTLSEDEATSPEGHSESSEGWSDTNLDPNELPSGSPMALEAMLIPLIQPIPHPSELGHIRTQSRVHDSSLPWMGLHKRKGLKVKKSMSAQAPL

Variants of: B1
Assay: co-immunoprecipitation (anti-FLAG IP, Western blot quantification)
Conditions: with Signal Peptide Peptidase-like 2c, transiently transfected HEK cells, n = 6, parent: 100, read off a plot

Variant | percent of parent (% of Frey1 Wt)
chain 1 MVLAMLGALYLRALLTLFLFYLILAAALLRPQPQRSQQSVPEEFSAPLELLQPLSGLVDDYGLRPKHPRPGGPRPLLSQAQQRKRDGPNMADYYYDVNL [chain 1 P11L G14L S16T G26A] | 17

Variants of: B1
Assay: competition co-immunoprecipitation pulling on Frey1 (anti-FLAG IP, Western blot quantification)
Conditions: with Signal Peptide Peptidase-like 2c, co-expression of HA-HO-1 as competitor, value is relative to the same Frey1 variant without HA-HO-1 (EV = 100), transiently transfected HEK cells, n = 3, parent: 100, read off a plot

Variant | co-precipitated SPPL2c, percent of no-competitor control
chain 1 MVLAMLGALYLRALLTLFLFYLILAAALLRPQPQRSQQSVPEEFSAPLELLQPLSGLVDDYGLRPKHPRPGGPRPLLSQAQQRKRDGPNMADYYYDVNL [chain 1 P11L G14L S16T G26A] | 59 % of EV
